Test results from patent publication US20250011397A1 (HOSPITAL FOR SICK CHILDREN, published 2025).
Read-outs that look alike come from different tables or passages of the source.

Experiments:
[1] = target: T1, SARS-CoV-2 receptor binding domain (RBD), wild type, His-tagged (BEI NR52309) (SARS-CoV-2, UniProt P0DTC2 319-541); test: RBD KD column; method and antibody format not stated
T1 construct: also called WT RBD

[2] = target: T1, SARS-CoV-2 receptor binding domain …; test: as above; remark: listed apart in the source
[3] = target: T1, SARS-CoV-2 receptor binding domain …
[4] = target: T1, SARS-CoV-2 receptor binding domain …; remark: listed apart in the source
[5] = target: T1, SARS-CoV-2 receptor binding domain …; remark: listed apart in the source
[6] = target: T1, SARS-CoV-2 receptor binding domain …; remark: listed apart in the source
[7] = target: T2, SARS-CoV-2 Spike, prefusion S ectodomain (BEI NR52394), His-tagged (SARS-CoV-2, UniProt P0DTC2 14-1213); test: BLI, His-tagged Spike on Ni-NTA biosensors, 1:1 fit
T2 construct: extracellular domain; also called S protein; S glycoprotein

| Binder | Kd [1] [nM] | Kd [2] [nM] | RBD binding [3] | RBD binding [4] | RBD binding [5] | RBD binding [6] | Kd [7] [nM] | koff [7] [s⁻¹] | kon [7] [M⁻¹ s⁻¹] |
| --- | --- | --- | --- | --- | --- | --- | --- | --- | --- |
| mAb 120 (antibody, V domains shown, also called IgG 120) VH: QVQLVQSGAEVKKPGASVKVSCKASGYTFTSYDINWVRQAPGQGLEWMGMIDPSGGSTSYAQKFQGRVTMTRDTSTSTVYMELSSLRSEDTAVYYCAKDFGGGTRYDYWYFDLWGRGTLVTVSS VL: EIVMTQSPATLSVSPGERATLSCRASQSVSSRYLAWYQQKPGQAPRLLIYGASTRATGIPARFSGSGSGTEFTLTISSLQSEDFAVYYCQQYYTTPRTFGQGTRLEIKR | 24 | 24 | – | – | – | – | – | – | – |
| mAb 236 (antibody, V domains shown, also called IgG 236) VH: QVQLVQSGAEVKKPGASVKVSCKASGGTFTSYGINWVRQAPGQGLEWMGWMNPNSGNTGYAQKFQGRVTMTRDTSTSTVYMELSSLRSEDTAVYYCASRGIQLLPRGMDVWGQGTTVTVSS VL: not shown | 145 | 145 | 1.2 | 1 | 0.1 | 0.2 | – | – | – |
| mAb 178 (antibody, V domains shown, also called IgG 178) VH: QVQLVQSGAEVKKPGASVKVSCKASGYTFTDYHMHWVRQAPGQGLEWMGWINPNSGGTNYAQKFQGRVTMTRDTSTSTVYMELSSLRSEDTAVYYCARDISSWYEITKFDPWGQGTLVTVSS VL: EIVMTQSPATLSVSPGERATLSCKASQSVSGTYLAWYQQKPGQAPRLLIYGASTRATGIPARFSGSGSGTEFTLTISSLQSEDFAVYYCLQTHSYPPTFGQGTKVEIKR | 72 | 72 | – | – | – | – | – | – | – |
| mAb 160 (antibody, V domains shown, also called IgG 160) VH: QVQLVQSGAEVKKPGASVKVSCKASGYTFTGHDMHWVRQAPGQGLEWMGIINPSGGSTSYAQKFQGRVTMTRDTSTSTVYMELSSLRSEDTAVYYCARANSLRYYYGMDVWGQGTMVTVSS VL: DIQMTQSPSSLSASVGDRVTITCRASQSVSSWLAWYQQKPGKAPKLLIYAASSLQSGVPSRFSGSGSGTDFTLTISSLQPEDFATYYCQQGYTTPYTFGQGTKLEIKR | 7.7 | 7.7 | – | – | – | – | – | – | – |
| 4A8 IgG (antibody, V domains shown, also called IgG 4A8) VH: EVQLVESGAEVKKPGASVKVSCKVSGYTLTELSMHWVRQAPGKGLEWMGGFDPEDGETMYAQKFQGRVTMTEDTSTDTAYMELSSLRSEDTAVYYCATSTAVAGTPDLFDYYYGMDVWGQGTTVTVSS VL: EIVMTQSPLSSPVTLGQPASISCRSSQSLVHSDGNTYLSWLQQRPGQPPRLLIYKISNRFSGVPDRFSGSGAGTDFTLKISRVEAEDVGVYYCTQATQFPYTFGQGTKVDIK | – | – | – | – | – | – | 1.42 | 0.000191 | 133000 |
| mAb 52 (antibody, V domains shown, also called IgG 52; antibody 52) VH: QVQLVQSGAEVKKPGSSVKVSCKASGYTFTSYGISWVRQAPGQGLEWMGGIIPMFGTTNYAQKFQGRVTITADKSTSTAYMELSSLRSEDTAVYYCARDRGDTIDYWGQGTLVTVSS VL: DIQMTQSPSSLSASVGDRVTITCRASQGISNNLNWYQQKPGKAPKLLIYAASSLESGVPSRFSGSGSGTDFTLTISSLQPEDFATYYCQQGNGFPLTFGPGTKVDIKR | – | – | 0.5 | 0.4 | 1.3 | 0.8 | – | – | – |
| mAb 128 (antibody, V domains shown) VH: QVQLVQSGAEVKKPGASVKVSCKASGYTFTHYYMHWVRQAPGQGLEWMGIINPSSSSASYSQKFQGRVTMTRDTSTSTVYMELSSLRSEDTAVYYCARDGRYGSGSYPFDYWGQGTLVTVSS VL: DIQMTQSPSSLSASVGDRVTITCRASQNISRYLNWYQQKPGKAPKLLIYDASNLETGVPSRFSGSGSGTDFTLTISSLQPEDFATYYCQQANGFPPTFGQGTKLEIKR | 57 | 57 | – | – | – | – | – | – | – |
| mAb 254 (antibody, V domains shown, also called IgG 254) VH: EVQLLESGGGLVQPGGSLRLSCAASGFTFSSSAMHWVRQAPGKGLEWVSAIGTGGDTYYADSVKGRFTISRDNSKNTLYLQMNSLRAEDTAVYYCAREGDGYNFYFDYWGQGTLVTVSS VL: DIQMTQSPSSLSASVGDRVTITCRASQGISSYLAWYQQKPGKAPKLLIYDASSLQIGVPSRFSGSGSGTDFTLTISSLQPEDFATYYCLQSYSTPPWTFGQGTKVEIKR | 127 | 127 | – | – | – | – | – | – | – |
| mAb 46 (antibody, V domains shown, also called IgG 46; antibody 46) VH: EVQLLESGGGLVQPGRSLRLSCAASGFTFSSYAMSWVRQAPGKGLEWVSTIYSGGSTYYADSVKGRFTISRDNSKNTLYLQMNSLRAEDTAVYYCARGDSRDAFDIWGQGTMVTVSS VL: DIQMTQSPSSLSASVGDRVTITCRASQSISSWLAWYQQKPGKAPKLLIYDASNLETGVPSRFSGSGSGTDFTLTISSLQPEDFATYYCQQSYSTPFTFGPGTKVDIKR | 83 | 83 | 0.2 | 0.2 | 1.3 | 1.2 | – | – | – |
| mAb 108 (antibody, V domains shown) VH: QVQLVQSGAEVKKPGASVKVSCKASGYIFSRYAIHWVRQAPGQGLEWMGWMNPISGNTDYAPNFQGRVTMTRDTSTSTVYMELSSLRSEDTAVYYCAKDGSQLAYLVEYFQHWGQGTLVTVSS VL: DIQMTQSPSSLSASVGDRVTITCRASQVITNNLAWYQQKPGKAPKLLIYDASTLETGVPSRFSGSGSGTDFTLTISSLQPEDFATYYCQQSYTFPYTFGQGTKVEIKR | 72 | 72 | – | – | – | – | – | – | – |
| mAb 158 (antibody, V domains shown, also called IgG 158) VH: QVQLVQSGAEVKKPGASVKVSCKASGYTFTGYYMHWVRQAPGQGLEWMGWINPLNGGTNFAPKFQGRVTMTRDTSTSTVYMELSSLRSEDTAVYYCARDPGGSYSNDAFDIWGQGTLVTVSS VL: DIQMTQSPSSLSASVGDRVTITCRASQSISRYLNWYQQKPGKAPKLLIYDASNLESGVPSRFSGSGSGTDFTLTISSLQPEDFATYYCQQANSFPLTFGGGTKVDIKR | 172 | 172 | – | – | – | – | – | – | – |
| mAb 324 (antibody, V domains shown, also called IgG 324) VH: QVQLVQSGAEVKKPGASVKVSCKASGGTFNNYGISWVRQAPGQGLEWMGWMNPNSGNTGYAQKFQGRVTMTRDTSTSTVYMELSSLRSEDTAVYYCARVGDYGDYIVSPFDLWGRGTLVTVSS VL: DIQMTQSPSSLSASVGDRVTITCRASQSITTYLNWYQQKPGKAPKLLIYDASNLETGVPSRFSGSGSGTDFTLTISSLQPEDFATYYCQQSYSTPPTFGQGTKVEIKR | 111 | 111 | 1.2 | 1 | 0.1 | 0.2 | – | – | – |
| mAb 82 (antibody, V domains shown, also called IgG 82) VH: QVQLVQSGAEVKKPGASVKVSCKASGGSFSTSAFYWVRQAPGQGLEWMGWINPYTGGTNYAQKFQGRVTMTRDTSTSTVYMELSSLRSEDTAVYYCARSRALYGSGSYFDYWGQGTLVTVSS VL: DIQMTQSPSSLSASVGDRVTITCRASQVISNYLAWYQQKPGKAPKLLIYDASNLETGVPSRFSGSGSGTDFTLTISSLQPEDFATYYCQQSFSPPPTFGQGTRLEIKR | 206 | 206 | 1.4 | 0.6 | 0.6 | 0.4 | – | – | – |
| mAb 349 (antibody, V domains shown, also called IgG 349) VH: EVQLLESGGGLVQPGGSLRLSCAASGFTFSNYGMHWVRQAPGKGLEWVSGISSAGSITNYADSVKGRFTISRDNSKNTLYLQMNSLRAEDTAVYYCAGNHAGTTVTSEYFQHWGQGTLVTVSS VL: DIQMTQSPSSLSASVGDRVTITCRASQSISSWLAWYQQKPGKAPKLLIYDTSNLETGVPSRFSGSGSGTDFTLTISSLQPEDFATYYCQQSYTTPWTFGQGTRLEIKR | 74 | 74 | – | – | – | – | – | – | – |
| mAb 64 (antibody, V domains shown, also called IgG 64) VH: EVQLLESGGGLVQPGGSLRLSCAASGFPFSQHGMHWVRQAPGKGLEWVSAIDRSGSYIYYADSVKGRFTISRDNSKNTLYLQMNSLRAEDTAVYYCARDTYGGKVTYFDYWGQGTLVTVSS VL: DIQMTQSPSSLSASVGDRVTITCRASQGISSHLAWYQQKPGKAPKLLIYDASNLETGVPSRFSGSGSGTDFTLTISSLQPEDFATYYCQQTYSTPWTFGQGTKVEIKR | 97 | 97 | – | – | – | – | – | – | – |
| mAb 56 (antibody, V domains shown, also called IgG 56) VH: QVQLVQSGAEVKKPGASVKVSCKASGYTFTSYGISWVRQAPGQGLEWMGWISAYNGNTNYAQKLQGRVTMTRDTSTSTVYMELSSLRSEDTAVYYCARDIGPIDYWGQGTLVTVSS VL: DIQMTQSPSSLSASVGDRVTITCRASQGISSYLAWYQQKPGKAPKLLIYDASNLQSGVPSRFSGSGSGTDFTLTISSLQPEDFATYYCQQANSFPSTFGQGTKVEIKR | 23 | 23 | – | – | – | – | – | – | – |
